This note sets out measurements from patent US20180057604A1 (Genentech, published 2018).

For assay [1], the target named is T1, cyno TfR extracellular domain (analogous construct to human TfR ecd) (cynomolgus monkey, UniProt Q5RDH6 87-760 (Pongo abelii entry)).
T1 construct: also called cynoTfR ecd
T1 chain: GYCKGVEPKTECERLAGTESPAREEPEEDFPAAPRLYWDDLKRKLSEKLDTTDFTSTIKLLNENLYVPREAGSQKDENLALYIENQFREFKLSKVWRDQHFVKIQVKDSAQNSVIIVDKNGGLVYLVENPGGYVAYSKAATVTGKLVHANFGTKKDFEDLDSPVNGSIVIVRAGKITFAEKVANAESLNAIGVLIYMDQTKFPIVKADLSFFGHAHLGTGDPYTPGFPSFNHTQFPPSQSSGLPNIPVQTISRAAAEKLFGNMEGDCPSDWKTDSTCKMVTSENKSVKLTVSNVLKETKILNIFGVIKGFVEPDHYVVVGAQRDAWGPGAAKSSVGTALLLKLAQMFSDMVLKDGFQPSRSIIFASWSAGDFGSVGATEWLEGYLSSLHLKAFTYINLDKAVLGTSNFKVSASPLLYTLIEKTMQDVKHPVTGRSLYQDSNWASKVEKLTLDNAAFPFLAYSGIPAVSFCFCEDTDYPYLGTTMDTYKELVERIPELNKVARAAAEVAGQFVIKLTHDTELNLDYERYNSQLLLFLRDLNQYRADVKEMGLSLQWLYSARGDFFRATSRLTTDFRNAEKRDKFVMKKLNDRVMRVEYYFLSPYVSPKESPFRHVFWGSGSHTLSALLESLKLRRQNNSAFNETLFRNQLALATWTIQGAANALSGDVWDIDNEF
Briefly: SPR, IgG.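 Note: His-tagged TfR captured via immobilized anti-His antibody on a CM5 chip, antibody injected in 3-fold dilution series by single cycle kinetics, 1:1 Langmuir or steady-state fit.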
Procedure: (§1) Antibody affinities were measured using surface plasmon resonance (“SPR”) (Biacore™, GE Healthcare). Anti-His antibody (Qiagen) was coupled onto four different flow cells of a BIACORE™ CM5 sensor chip (Biacore, Inc., Piscataway, N.J.) at between 6000 and 8000 RU. Immobilization was achieved by random coupling through amino groups using a protocol provided by the manufacturer. 10×HBS-P (Biacore, Inc., Piscataway, N.J.) was diluted in water and served as the dilution and running buffer. Purified human or cyno TfR was captured, followed by a 3-fold dilution series of IgG or Fab that was injected at a flow rate of 30 ml/min using the single cycle kinetics method. Affinity constants were determined using a simple 1:1 Langmuir binding model or using a steady state model when kₒₙ or koff was beyond the detection limit. The equilibrium dissociation constant (KD) was calculated as the ratio of association rate constant (kₒₙ) and dissociation rate constant (koff).
(§2) In both cases, the SPR experiments were performed as described above.

Assay [2] has as its target T2, human TfR extracellular domain with N-terminal His tag (human, UniProt P02786 89-760).
T2 construct: Biotinylated in some assays; also called huTfR; HuTfR
The experiment in a line: SPR, IgG.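 Note: His-tagged TfR captured via immobilized anti-His antibody on a CM5 chip, antibody injected in 3-fold dilution series by single cycle kinetics, 1:1 Langmuir or steady-state fit.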 On the technique in general: Surface plasmon resonance follows binding to a sensor surface in real time, without labels.
Procedure: as §1, §2

The target in assay [3] is T3, human BACE1 ECD.
T3 construct: analyte of the Octet assay (200 nM) and enzyme of the first short substrate assay; also called human BACE1 extracellular domain
The experiment in a line: Octet, pH 7.5.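 Note: antibodies captured on anti-human capture sensor tips, dissociation monitored in PBS with BSA, Kd obtained from kinetic fit to a one-to-one binding model.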
Procedure: (§3) Anti-BACE1 antibodies were loaded onto anti-human capture (AHC) sensors (tips) followed by 60 seconds baseline in assay buffer. […] Tips were transferred to assay buffer for 5 minutes, 30 minutes, or 120 minutes depending on the off-rate, for off-rate measurement. Assay buffer was either PBS+0.1% BSA, pH 7.5; or PBS+0.1% BSA, pH 5.0. Kinetics were analyzed using a 1:1 binding model.

Assay [4] concerns the target T4, murine BACE1 ECD.
T4 construct: analyte of the Octet assay (200 nM) and enzyme of the first short substrate assay
Briefly: Octet, pH 7.5.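 Note: antibodies captured on anti-human capture sensor tips, dissociation monitored in PBS with BSA, Kd obtained from kinetic fit to a one-to-one binding model.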 A general note: Biolayer interferometry detects binding as a change in optical thickness at a sensor tip.
Procedure: as §3

The target of assay [5] is T5, human BACE1 (R&D Systems) (human, UniProt P56817).
T5 construct: recombinant, commercial (R&D Systems)
The experiment in a line: SPR (Biacore).
Procedure: Binding affinities of certain anti-BACE1 IgGs were measured by surface plasmon resonance (SRP) using a BIAcore™-T100 instrument. […] Association rates (kon) and dissociation rates (koff) were calculated using a simple one-to-one Langmuir binding model (BIAcore Evaluation Software version 3.2). The equilibrium dissociation constant (KD) was calculated as the ratio koff/kon.

Assay [6] deals with BACE1 in primary mouse cortical neurons (mouse, UniProt P56818 46-501). The experiment in a line: cell-based or functional assay.
In assay [7] the target is T3, human BACE1 ECD. The experiment in a line: Octet, pH 5.0.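 Note: antibodies captured on anti-human capture sensor tips, dissociation monitored in PBS with BSA buffer, kinetics fitted with a one-to-one binding model.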
Procedure: as §3
For assay [8], the target named is T4, murine BACE1 ECD. The experiment in a line: Octet, pH 5.0.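 Note: antibodies captured on anti-human capture sensor tips, dissociation monitored in PBS with BSA buffer, kinetics fitted with a one-to-one binding model.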
Procedure: as §3

For orientation: Kd means a measure of binding affinity in units of concentration.

T5 sequence (P56817 22-457 limits assumed): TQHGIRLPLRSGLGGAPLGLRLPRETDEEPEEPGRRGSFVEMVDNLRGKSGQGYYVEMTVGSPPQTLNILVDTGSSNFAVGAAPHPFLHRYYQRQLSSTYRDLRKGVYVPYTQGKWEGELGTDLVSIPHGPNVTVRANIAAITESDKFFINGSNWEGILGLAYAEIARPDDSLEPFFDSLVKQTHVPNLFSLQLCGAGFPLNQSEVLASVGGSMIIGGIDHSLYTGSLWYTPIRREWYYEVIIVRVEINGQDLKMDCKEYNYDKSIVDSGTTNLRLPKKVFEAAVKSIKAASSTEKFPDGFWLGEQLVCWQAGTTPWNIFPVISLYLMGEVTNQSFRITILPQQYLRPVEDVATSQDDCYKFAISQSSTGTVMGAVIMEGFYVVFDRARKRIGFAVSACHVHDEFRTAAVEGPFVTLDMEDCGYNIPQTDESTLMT
Sequence of BACE1 in primary mouse cortical neurons (P56818 46-501): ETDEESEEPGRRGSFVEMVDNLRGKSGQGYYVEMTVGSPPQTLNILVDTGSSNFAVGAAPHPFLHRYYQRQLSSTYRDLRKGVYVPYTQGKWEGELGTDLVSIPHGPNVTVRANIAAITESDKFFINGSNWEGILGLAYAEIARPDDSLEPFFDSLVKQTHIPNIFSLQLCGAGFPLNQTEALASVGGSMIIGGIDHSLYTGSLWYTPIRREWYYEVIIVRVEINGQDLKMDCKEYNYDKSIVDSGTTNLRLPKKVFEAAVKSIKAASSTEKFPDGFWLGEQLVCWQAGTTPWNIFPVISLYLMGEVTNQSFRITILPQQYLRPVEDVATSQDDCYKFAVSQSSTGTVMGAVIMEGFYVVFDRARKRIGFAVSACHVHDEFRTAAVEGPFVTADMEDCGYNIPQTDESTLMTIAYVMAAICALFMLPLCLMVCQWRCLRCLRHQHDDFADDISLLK
T4 sequence (single chain, as listed by the source limits assumed): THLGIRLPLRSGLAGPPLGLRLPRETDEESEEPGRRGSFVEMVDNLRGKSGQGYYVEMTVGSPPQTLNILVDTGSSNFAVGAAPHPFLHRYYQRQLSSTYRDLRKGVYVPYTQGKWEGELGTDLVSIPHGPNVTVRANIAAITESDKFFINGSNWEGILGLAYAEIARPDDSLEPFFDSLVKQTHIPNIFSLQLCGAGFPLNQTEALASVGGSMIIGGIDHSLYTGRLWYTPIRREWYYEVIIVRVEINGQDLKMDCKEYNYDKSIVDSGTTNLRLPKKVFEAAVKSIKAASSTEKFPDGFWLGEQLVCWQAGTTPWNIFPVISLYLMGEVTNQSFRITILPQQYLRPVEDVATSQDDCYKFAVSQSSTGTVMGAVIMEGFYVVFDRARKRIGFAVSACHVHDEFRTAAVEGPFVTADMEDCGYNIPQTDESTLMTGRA
T3 sequence (single chain, as listed by the source limits assumed): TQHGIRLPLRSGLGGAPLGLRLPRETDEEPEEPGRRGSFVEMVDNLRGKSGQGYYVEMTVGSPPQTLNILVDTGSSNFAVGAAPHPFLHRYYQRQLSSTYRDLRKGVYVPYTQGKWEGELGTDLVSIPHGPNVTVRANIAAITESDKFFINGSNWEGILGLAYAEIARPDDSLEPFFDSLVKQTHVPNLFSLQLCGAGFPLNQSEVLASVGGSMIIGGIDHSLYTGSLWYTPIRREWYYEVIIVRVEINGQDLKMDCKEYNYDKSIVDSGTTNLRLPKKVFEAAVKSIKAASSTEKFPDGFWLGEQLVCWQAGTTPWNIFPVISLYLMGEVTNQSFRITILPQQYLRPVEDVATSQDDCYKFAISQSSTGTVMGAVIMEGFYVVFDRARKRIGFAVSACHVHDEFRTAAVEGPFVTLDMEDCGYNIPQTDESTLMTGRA
T2 sequence (P02786 89-760 G142S): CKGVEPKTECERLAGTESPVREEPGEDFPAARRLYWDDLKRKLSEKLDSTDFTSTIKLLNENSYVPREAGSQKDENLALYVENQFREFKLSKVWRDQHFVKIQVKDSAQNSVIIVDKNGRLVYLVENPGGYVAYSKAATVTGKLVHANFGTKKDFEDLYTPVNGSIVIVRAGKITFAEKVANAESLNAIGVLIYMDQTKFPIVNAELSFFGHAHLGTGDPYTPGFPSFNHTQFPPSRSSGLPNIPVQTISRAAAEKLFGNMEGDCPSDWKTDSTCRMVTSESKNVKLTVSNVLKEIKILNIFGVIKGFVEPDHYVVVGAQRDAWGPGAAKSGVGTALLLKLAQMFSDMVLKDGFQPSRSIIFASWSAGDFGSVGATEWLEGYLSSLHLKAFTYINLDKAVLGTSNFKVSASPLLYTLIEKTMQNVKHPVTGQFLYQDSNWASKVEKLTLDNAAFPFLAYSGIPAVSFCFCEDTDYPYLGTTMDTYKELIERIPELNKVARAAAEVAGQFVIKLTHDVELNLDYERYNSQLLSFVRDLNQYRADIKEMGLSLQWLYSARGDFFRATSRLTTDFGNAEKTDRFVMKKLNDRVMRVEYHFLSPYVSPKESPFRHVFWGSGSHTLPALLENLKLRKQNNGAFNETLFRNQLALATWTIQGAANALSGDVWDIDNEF

B1: hu16F6.v3 (antibody, V domains shown)
VH: EVQLVESGPGLVKPSETLSLTCTVSGNSITSEYAWNWIRQPPGKGLEWIGYISYSGTTSYNPSLKSRVTISVDTSKNQFSLKLSSVTAADTAVYYCARYGYGNPATRYFDVWGQGTLVTVSS
VL: DIQMTQSPSSLSASVGDRVTITCRASKSISKYLAWYQQKPGKTNKLLLYSGSTLQSGVPSRFSGSGSGTDYTLTISSLQPEDFATYYCQQHNEYPWTFGQGTKVEIK
notes: IgG; HC 71 V, 78 F
As for B1, the Kd in assay [1] was determined as 34.5 nM; in assay [2], 4.11 nM.

B2: hu16F6.v4 (antibody, V domains shown)
VH: EVQLVESGPGLVKPSETLSLTCTVSGNSITSEYAWNWIRQPPGKGLEWIGYISYSGTTSYNPSLKSRVTISRDTSKNQLSLKLSSVTAADTAVYYCARYGYGNPATRYFDVWGQGTLVTVSS
VL: DIQMTQSPSSLSASVGDRVTITCRASKSISKYLAWYQQKPGKTNKLLLYSGSTLQSGVPSRFSGSGSGTDYTLTISSLQPEDFATYYCQQHNEYPWTFGQGTKVEIK
notes: IgG; HC 71 R, 78 L; also called 16F6.v4 IgG
Take B2: the Kd in assay [1] is 11 nM; in assay [2] it was 0.884 nM.

B3: 6270 (antibody, V domains shown)
VH: QVQLVQSGAEVKKPGSSVKVSCKASGGTFSGYGISWVRQAPGQGLEWMGNIIPGFGTANYAQKFQGRVTITADESTSTAYMELSSLRSEDTAVYYCARSGGTKYGMLDVWGQGTMVTVSS
VL: EIVMTQSPATLSVSPGERATLSCRASQSVSSNLAWYQQKPGQAPRLLIYGASTRATGIPARFSGSGSGTEFTLTISSLQSEDFAVYYCQQLLLWPPRTFGGGTKVEIK
notes: anti-BACE1 IgG
For B3, the Kd in assay [3] is under 0.29 nM; in assay [4], under 0.4 nM; in assay [5], 4.64 nM; in assay [7], under 0.29 nM; in assay [8], under 0.41 nM. Further, the “IC50, Abeta x-40 in mouse cortical neurons” value in assay [6] is 4.48 nM. Further, in assay [6], the “maximal % inhibition of Abeta x-40” value was found to be 85%.

B4: 6296 (antibody, V domains shown)
VH: QLQLQESGPGLVKPSETLSLTCTVSGGSISSSSYYWGWIRQPPGKGLEWIGNIYYSGSTYYNPSLRGRVTISVDTSKNQFSLKLSSVTAADTAVYYCARLGHGYNYFDLWGRGTLVTVSS
VL: EIVLTQSPATLSLSPGERATLSCRASQSVSSYLAWFQQKPGQAPRLLIYDASNRATGIPARFSGSGSGTDFTLTISSLEPEDFAVYYCQQVYVWPPRTFGGGTKVEIK
notes: anti-BACE1 IgG
Turning to B4, the Kd is 0.28 nM in assay [3]; under 0.24 nM in assay [4]; 3.29 nM in assay [5]; 0.2 nM in assay [7]; under 0.24 nM in assay [8]. Also, the “IC50, Abeta x-40 in mouse cortical neurons” value in assay [6] worked out at 7.92 nM. In addition, the “maximal % inhibition of Abeta x-40” value in assay [6] came out at 62%.

B5: 6288 (antibody, V domains shown)
VH: QLQLQESGPGLVKPSETLSLTCTVSGGSTSSSSYYWGWIRQPPGKGLEWIGSIYRSGSTYYNPSLRSRVTISVDTSKNQFSLKLSSVTAADTAVYYCARVGHGISYFDLWGRGTLVTVSS
VL: EIVLTQSPATLSLSPGERATLSCRASQSVSSYLAWYQQKPGQAPRLLIYDASNRATGIPARFSGSGSGTDFTLTISSLEPEDFAVYYCQQSLTWPPRTFGGGTKVEIK
notes: anti-BACE1 IgG
Take B5: the dissociation constant Kd in assay [3] is under 0.21 nM; in assay [4], under 0.23 nM; in assay [5], 4.79 nM; in assay [7], under 0.21 nM; in assay [8], 0.28 nM. Also, in assay [6], the “IC50, Abeta x-40 in mouse cortical neurons” value is 11 nM. Further, in assay [6], the “maximal % inhibition of Abeta x-40” value turned out to be 67%.

B6: 6274 (antibody, V domains shown)
VH: QVQLVQSGAEVKKPGSSVKVSCKASGGTFSGYGISWVRQAPGQGLEWMGNIIPGFGTANYAQKFQGRVTITADESTSTAYMELSSLRSEDTAVYYCARSGGTKYGMLDVWGQGTMVTVSS
VL: EIVMTQSPATLSVSPGERATLSCRASQSVSSHLAWYQQKPGQAPRLLIYGASTRATGIPARFSGSGSGTEFTLTISSLQSEDFAVYYCQQLILWPPRTFGGGTKVEIK
notes: anti-BACE1 IgG
B6: the Kd in assay [3] is under 0.37 nM; in assay [4], under 0.37 nM; in assay [5] it was 4.18 nM; in assay [7], 0.53 nM; in assay [8], 0.76 nM. For the same molecule, in assay [6], the “IC50, Abeta x-40 in mouse cortical neurons” value was found to be 4.82 nM. Further, the “maximal % inhibition of Abeta x-40” value in assay [6] worked out at 85%.

B7: 6293 (antibody, V domains shown)
VH: QLQLQESGPGLVKPSETLSLTCTVSGGSISSSSYYWGWIRQPPGKGLEWIGMIYYSGSTWYNPSLRSRVTISVDTSKNQFSLKLSSVTAADTAVYYCARVGHGVSYFDLWGRGTLVTVSS
VL: EIVLTQSPATLSLSPGERATLSCRASQSVSSYLAWYQQKPGQAPRLLIYDASKRATGIPARFSGSGSGTDFTLTISSLEPEDFAVYYCQQVYTWPPRTFGGGTKVEIK
notes: anti-BACE1 IgG
Take B7: the Kd in assay [3] was under 0.28 nM; in assay [4], under 0.28 nM; in assay [5], 8.26 nM; in assay [7], under 0.28 nM; in assay [8] it was under 0.28 nM. In addition, in assay [6], the “IC50, Abeta x-40 in mouse cortical neurons” value was 0.88 nM. The “maximal % inhibition of Abeta x-40” value in assay [6] was 75%.

B8: 6297 (antibody, V domains shown)
VH: QLQLQESGPGLVKPSETLSLTCTVSGGPISSSSYYWGWIRQPPGKGLEWIGNIYYSGSTYYNPSLRGRVTISVDTSKNQFSLKLSSVTAADTAVYYCARLGHGYNYFDLWGRGTLVTVSS
VL: EIVLTQSPATLSLSPGERATLSCRASQSVSSYLAWFQQKPGQAPRLLIYDASNRATGIPARFSGSGSGTDFTLTISSLEPEDFAVYYCQQVYVWPPRTFGGGTKVEIK
notes: anti-BACE1 IgG
Consider B8, for which the Kd is 0.4 nM in assay [3]; under 0.26 nM in assay [4]; 3.87 nM in assay [5]; 0.28 nM in assay [7]; 0.32 nM in assay [8]. The “IC50, Abeta x-40 in mouse cortical neurons” value in assay [6] stood at 3.89 nM. In addition, in assay [6], the “maximal % inhibition of Abeta x-40” value was found to be 63%.

B9: 6275 (antibody, V domains shown)
VH: QVQLVQSGAEVKKPGSSVKVSCKASGGTFRGYAISWVRQAPGQGLEWMGNIIPGFGTANYAQKFQGRVTITADESTSTAYMELSSLRSEDTAVYYCARSGGTKYGMLDVWGQGTMVTVSS
VL: EIVMTQSPATLSVSPGERATLSCRASQSVSSNLAWYQQKPGQAPRLLIYGASTRATGIPARFSGSGSGTEFTLTISSLQSEDFAVYYCQQLFLWPPRTFGGGTKVEIK
notes: anti-BACE1 IgG
Regarding B9, the Kd in assay [3] was under 0.48 nM; in assay [4] it was under 0.49 nM; in assay [5], 2.68 nM; in assay [7], under 0.34 nM; in assay [8] it was under 0.37 nM. The “IC50, Abeta x-40 in mouse cortical neurons” value in assay [6] was determined as 1.27 nM. Moreover, the “maximal % inhibition of Abeta x-40” value in assay [6] came out at 71%.

B10: 6289 (antibody, V domains shown)
VH: QLQLQESGPGLVKPSETLSLTCTVSGGSISSSSYYWGWIRQPPGKGLEWIGSIYRSGSTYYNPSLRSRVTISVDTSKNQFSLKLSSVTAADTAVYYCVRVGHGISYFDLWGRGTLVTVSS
VL: EIVLTQSPATLSLSPGERATLSCRASQSVSSYLAWYQQKPGQAPRLLIYDASNRATGIPARFSGSGSGTDFTLTISSLEPEDFAVYYCQQSLTWPPRTFGGGTKVEIK
notes: anti-BACE1 IgG
Consider B10, for which the dissociation constant Kd came to 0.37 nM in assay [3]; 0.28 nM in assay [4]; 7.37 nM in assay [5]; 0.39 nM in assay [7]; 0.38 nM in assay [8]. Further, in assay [6], the “IC50, Abeta x-40 in mouse cortical neurons” value is 5.21 nM. The “maximal % inhibition of Abeta x-40” value in assay [6] turned out to be 74%.

B11: 6279 (antibody, V domains shown)
VH: QVQLVQSGAEVKKPGSSVKVSCKASGGTFRGYAISWVRQAPGQGLEWMGNIIPGFGTANYAQKFQGRVTITADESTSTAYMELSSLRSEDTAVYYCARSGGTKYGMLDVWGQGTMVTVSS
VL: EIVMTQSPATLSVSPGERATLSCRASQSVSSNLAWYQQKPGQAPRLLIYGASTRATGIPARFSGSGSGTEFTLTISSLQSEDFAVYYCQQLLLWPPRTFGGGTKVEIK
notes: anti-BACE1 IgG
B11: the Kd in assay [3] was under 0.45 nM; in assay [4] it was under 0.46 nM; in assay [5] it was 2.11 nM; in assay [7], under 0.36 nM; in assay [8], under 0.43 nM. Further, the “IC50, Abeta x-40 in mouse cortical neurons” value in assay [6] stood at 6.23 nM. In assay [6], the “maximal % inhibition of Abeta x-40” value worked out at 71%.

B12: 6290 (antibody, V domains shown)
VH: QLQLQESGPGLVKPSETLSLTCTVSGGSISSSSYYWGWIRQPPGKGLEWIGMIYYSGSTWYNPSLKSRVTISVDTSKNQFSLKLSSVTAADTAVYYCARVGLGVSYFDLWGRGTLVTVSS
VL: EIVLTQSPATLSLSPGERATLSCRASQSVSSYLAWYQQKPGQAPRLLIYDASKRATGIPARFSGSGSGTDFTLTISSLEPEDFAVYYCQQVYTWPPRTFGGGTKVEIK
notes: anti-BACE1 IgG
For B12, the Kd in assay [3] was under 0.26 nM; in assay [4], under 0.27 nM; in assay [5], 3.19 nM; in assay [7], under 0.23 nM; in assay [8] it was under 0.27 nM. In assay [6], the “IC50, Abeta x-40 in mouse cortical neurons” value amounted to 3.17 nM. Besides, in assay [6], the “maximal % inhibition of Abeta x-40” value turned out to be 63%.
